# According to article PMC12412785:
# Tests used:
# [1] = molecular target: PpRAD51-2, purified recombinant (P. patens)
# [2] = system: PpBRCA2-NterT138 (Physcomitrium patens); experiment: BLI; conditions: text cites Fig. 7B; Kd in Fig. 7C not in text; EMSA: 10 mM Tris-HCl pH 7.5, 50 mM NaCl, 5 mM MgCl2, 2 mM ATP, 1 mM DTT, 37 C, 7 min (RAD51/DMC1 15 min), 0.01% glutaraldehyde; BLI: 25 mM Tris pH 7.5, 100 mM …
# [3] = molecular target: biotinylated PpBRCA2-BRC1 peptide (P. patens); experiment: BLI; biotinylated BRC peptides (0.5 μM) immobilised on streptavidin biosensors, PpRAD51-2 in solution in two-fold serial dilutions; 25°C; buffer A (25 mM Tris pH 7.5, 100 mM Na2SO4, 5 mM β-mercaptoethanol) with 0.05% Tween-20; Kd in steady-state mode
# [4] = molecular target: biotinylated PpBRCA2-BRC2 peptide (P. patens); experiment: as above
# [5] = molecular target: biotinylated PpBRCA2-BRC4 peptide (P. patens); experiment: as above
# [6] = molecular target: 6His-PpBRCA2-Cter (amino acids 251–391) (P. patens); experiment: BLI; 6His-PpBRCA2-Cter immobilised on Ni-NTA biosensors, PpRAD51-2 in solution (1.88–30 nM); buffer A with 0.1% Tween-20; 25°C
substance,measurement,setting,value
6His-PpBRCA2-Cter (amino acids 251–391) (domain or fragment),"concentration needed for complete inhibition of PpRAD51-ssDNA filament formation (EMSA; 1 μM RAD51-2, 3 μM 100 nt ssDNA, 0–4 μM PpBRCA2-Cter)",[1],2 µM
100 nt ssDNA (BLI),fold decrease in affinity relative to PpBRCA2-Nter (fold weaker affinity than PpBRCA2-Nter),[2],50
"PpRAD51-2, purified recombinant (natural protein)",Kd,[3],0.4 µM
same,Kd,[4],0.8 µM
same,Kd,[5],0.4 µM
same,Kd,[6],0.0043 µM
biotinylated PpBRCA2-BRC4 peptide,"concentration needed for complete inhibition of PpRAD51-ssDNA filament formation (EMSA; 1 μM RAD51-2, 3 μM 100 nt ssDNA, 0–4 μM PpBRCA2-BRC4)",[1],> 4 µM
